These results are taken from patent publication US10221225B2, “Peptides and combination of peptides and scaffolds thereof for use in immunotherapy against colorectal carcinoma (CRC) and other cancers” (immatics biotechnologies GmbH, priority 2015, dated 2019).

Experiment [1] relates to CD8+ T-cells. Nature of the experiment: In vitro T-cell priming assay with aAPCs loaded with peptide/MHC and anti-CD28, pMHC multimer readout. It counts as cell-based, human. The conditions noted are these: in vitro immunogenicity; for Wells positive: HLA-A*02 restricted peptides; for donors (percentage of positive donors) / wells (percentage of positive wells): HLA class I peptides. The source says: In order to obtain information regarding the immunogenicity of the TUMAPs of the present invention, the inventors performed investigations using an in vitro T-cell priming assay based on repeated stimulations of CD8+ T-cells with artificial antigen presenting cells (aAPCs) loaded with peptide/MHC complexes and anti-CD28 antibody.
In order to perform in vitro stimulations by artificial antigen presenting cells loaded with peptide-MHC complex (pMHC) and anti-CD28 antibody, the inventors first isolated CD8+ T-cells from fresh HLA-A*02 leukopheresis products via positive selection using CD8 microbeads (Miltenyi Biotec, Bergisch-Gladbach, Germany) of healthy donors obtained from the University clinics Mannheim, Germany, after informed consent.
PBMCs and isolated CD8+ lymphocytes were incubated in T-cell medium (TCM) until use consisting of RPMI-Glutamax (Invitrogen, Karlsruhe, Germany) supplemented with 10% heat inactivated human AB serum (PAN-Biotech, Aidenbach, Germany), 100 U/ml Penicillin/100 μg/ml Streptomycin (Cambrex, Cologne, Germany), 1 mM sodium pyruvate (CC Pro, Oberdorla, Germany), 20 μg/ml Gentamycin (Cambrex). 2.5 ng/ml IL-7 (PromoCell, Heidelberg, Germany) and 10 U/ml IL-2 (Novartis Pharma, Nürnberg, Germany) were also added to the TCM at this step.
Generation of pMHC/anti-CD28 coated beads, T-cell stimulations and readout was performed in a highly defined in vitro system using four different pMHC molecules per stimulation condition and 8 different pMHC molecules per readout condition.
The purified co-stimulatory mouse IgG2a anti human CD28 Ab 9.3 (Jung et al., 1987) was chemically biotinylated using Sulfo-N-hydroxysuccinimidobiotin as recommended by the manufacturer (Perbio, Bonn, Germany). Beads used were 5.6 μm diameter streptavidin coated polystyrene particles (Bangs Laboratories, Illinois, USA).
800,000 beads/200 μl were coated in 96-well plates in the presence of 4×12.5 ng different biotin-pMHC, washed and 600 ng biotin anti-CD28 were added subsequently in a volume of 200 μl. Stimulations were initiated in 96-well plates by co-incubating 1×10^6 CD8+ T-cells with 2×10^5 washed coated beads in 200 μl TCM supplemented with 5 ng/ml IL-12 (PromoCell) for 3 days at 37° C. Half of the medium was then exchanged by fresh TCM supplemented with 80 U/ml IL-2 and incubating was continued for 4 days at 37° C. This stimulation cycle was performed for a total of three times. For the pMHC multimer readout using 8 different pMHC molecules per condition, a two-dimensional combinatorial coding approach was used as previously described (Andersen et al., 2012) with minor modifications encompassing coupling to 5 different fluorochromes. Finally, multimeric analyses were performed by staining the cells with Live/dead near IR dye (Invitrogen, Karlsruhe, Germany), CD8-FITC antibody clone SK1 (BD, Heidelberg, Germany) and fluorescent pMHC multimers. For analysis, a BD LSRII SORP cytometer equipped with appropriate lasers and filters was used. Peptide specific cells were calculated as percentage of total CD8+ cells. Evaluation of multimeric analysis was done using the FlowJo software (Tree Star, Oregon, USA). In vitro priming of specific multimer+ CD8+ lymphocytes was detected by comparing to negative control stimulations.

The target of experiment [2] is HLA-A*02:01 (Homo sapiens, UniProt P04439, D140Y/D185E/D98H/E176V/E277Q/G131W/G231S/I119V/I121R/I166T/I218V/L300P/L318F/N151K/N90K/P208A/P217A/Q86G/Q94H/R138H/R169H/T345S). Put plainly: MHC binding assay (UV-ligand exchange, beta2m ELISA, peptide exchange yield). Particulars: MHC class I binding score; binding to HLA-A*02:01 ranged by peptide exchange yield (UV-ligand exchange, β2m ELISA). The text has this:
Candidate peptides for T cell based therapies according to the present invention were further tested for their MHC binding capacity (affinity). The individual peptide-MHC complexes were produced by UV-ligand exchange, where a UV-sensitive peptide is cleaved upon UV-irradiation, and exchanged with the peptide of interest as analyzed. Only peptide candidates that can effectively bind and stabilize the peptide-receptive MHC molecules prevent dissociation of the MHC complexes. To determine the yield of the exchange reaction, an ELISA was performed based on the detection of the light chain (β2m) of stabilized MHC complexes. The assay was performed as generally described in Rodenko et al. (Rodenko et al., 2006).
96 well MAXISorp plates (NUNC) were coated over night with 2 ug/ml streptavidin in PBS at room temperature, washed 4× and blocked for 1 h at 37° C. in 2% BSA containing blocking buffer. Refolded HLA-A*02:01/MLA-001 monomers served as standards, covering the range of 15-500 ng/ml. Peptide-MHC monomers of the UV-exchange reaction were diluted 100 fold in blocking buffer. Samples were incubated for 1 h at 37° C., washed four times, incubated with 2 ug/ml HRP conjugated anti-β2m for 1 h at 37° C., washed again and detected with TMB solution that is stopped with […]. Absorption was measured at 450 nm. Candidate peptides that show a high exchange yield (preferably higher than 50%, most preferred higher than 75%) are generally preferred for a generation and production of antibodies or fragments thereof, and/or T cell receptors or fragments thereof, as they show sufficient avidity to the MHC molecules and prevent dissociation of the MHC complexes.

In the case of “1 (ALIKQLFEA; listed as Homo sapiens) [compound 1]”, the Wells positive result in experiment [1] is “″+″ (<20% = +)”. In experiment [2], the Peptide exchange result is “″+++″ (≥50 = +++)”.

Consider “2 (ALLPRYFFL; listed as Homo sapiens) [compound 2]”, for which the Wells positive entry in experiment [1] is on record as “″++++″ (>= 70% = ++++)”. The Peptide exchange entry in experiment [2] is “″++″ (≥20% = ++)”.

For “3 (RLIPDTLYSV; listed as Homo sapiens) [compound 3]”, in experiment [1], the Wells positive result is given as “″+++″ (50%-69% = +++)”. The Peptide exchange result in experiment [2] was “″++++″ (≥75% = ++++)”.

As to “5 (WLFDDGGLTL; listed as Homo sapiens) [compound 5]”, the Wells positive result in experiment [1] is given as “″++″ (20%-49% = ++)”. In experiment [2], the Peptide exchange result was “″++++″ (≥75% = ++++)”.

For “7 (YLTRHLAVL; listed as Homo sapiens) [compound 7]”, the Wells positive result in experiment [1] is “″+″ (<20% = +)”. The Peptide exchange entry in experiment [2] is reported as “″++″ (≥20% = ++)”.

Take “9 (ILDDHLSRV; listed as Homo sapiens) [compound 9]”: the Wells positive result in experiment [1] was “″+″ (<20% = +)”. Also, the Peptide exchange result in experiment [2] is reported as “″++″ (≥20% = ++)”.

“10 (RMYNKIFAI; listed as Homo sapiens) [compound 10]”: the Wells positive entry in experiment [1] is reported as “″++++″ (>= 70% = ++++)”. The Peptide exchange result in experiment [2] is on record as “″+++″ (≥50 = +++)”.

Turning to “11 (YLFEKTFNM; listed as Homo sapiens) [compound 11]”, in experiment [1], the Wells positive result is recorded as “″+″ (<20% = +)”. In experiment [2], the Peptide exchange entry was “″+++″ (≥50 = +++)”.

For the substance “12 (ALVQGILERV; listed as Homo sapiens) [compound 12]”, in experiment [1], the Wells positive result is reported as “″++++″ (>= 70% = ++++)”. Further, the Peptide exchange entry in experiment [2] is “″+++″ (≥50 = +++)”.

Consider “13 (FLLAEDTKV; listed as Homo sapiens) [compound 13]”, for which, in experiment [1], the Wells positive result is “″++″ (20%-49% = ++)”. Moreover, the Peptide exchange entry in experiment [2] is on record as “″+++″ (≥50 = +++)”.

Regarding “17 (ALAAARVEL; listed as Homo sapiens) [compound 17]”, the Wells positive entry in experiment [1] was “″++″ (20%-49% = ++)”. In addition, the Peptide exchange entry in experiment [2] is recorded as “″+++″ (≥50 = +++)”.

For “18 (FLSSLKGGLL; listed as Homo sapiens) [compound 18]”, the Wells positive entry in experiment [1] was “″+″ (<20% = +)”. Further, in experiment [2], the Peptide exchange result is given as “″+++″ (≥50 = +++)”.

With “19 (RLYTKLLNEA; listed as Homo sapiens) [compound 19]”, the Wells positive entry in experiment [1] is listed as “″+++″ (50%-69% = +++)”. Also, the Peptide exchange result in experiment [2] is “″+++″ (≥50 = +++)”.

For “21 (VLIDHRWVL; listed as Homo sapiens) [compound 21]”, the Wells positive result in experiment [1] is “″+″ (<20% = +)”. The Peptide exchange entry in experiment [2] was “″+++″ (≥50 = +++)”.

Take “22 (GLIDEVMVL; listed as Homo sapiens) [compound 22]”: the Wells positive result in experiment [1] is recorded as “″++″ (20%-49% = ++)”. In addition, the Peptide exchange entry in experiment [2] is “″+++″ (≥50 = +++)”.

For “31 (LLYGKYVSV; listed as Homo sapiens) [compound 31]”, the Wells positive entry in experiment [1] is “″++″ (20%-49% = ++)”. The Peptide exchange result in experiment [2] is given as “″+++″ (≥50 = +++)”.

As for “168 (GLIRFPLMTI; listed as Homo sapiens) [compound 168]”, the Peptide exchange result in experiment [2] was “″+++″ (≥50 = +++)”.

For “169 (YLAHFIEGL; listed as Homo sapiens) [compound 169]”, the Peptide exchange result in experiment [2] is “″+++″ (≥50 = +++)”.

For the substance “170 (ALAGGITMV; listed as Homo sapiens) [compound 170]”, the Peptide exchange entry in experiment [2] is given as “″+++″ (≥50 = +++)”.

Consider “171 (RLQETEGMVAV; listed as Homo sapiens) [compound 171]”, for which the Peptide exchange entry in experiment [2] was “″++″ (≥20% = ++)”.

In the case of “172 (LLLDTVTMQV; listed as Homo sapiens) [compound 172]”, the Peptide exchange entry in experiment [2] is listed as “″+++″ (≥50 = +++)”.

Take “173 (KLGDLMVLL; listed as Homo sapiens) [compound 173]”: the Peptide exchange entry in experiment [2] is on record as “″+++″ (≥50 = +++)”.

For the substance “174 (ILLDDNMQIRL; listed as Homo sapiens) [compound 174]”, the Peptide exchange entry in experiment [2] is “″++++″ (≥75% = ++++)”.

“175 (TLLGGKEAQALGV; listed as Homo sapiens) [compound 175]”: the Peptide exchange result in experiment [2] is listed as “″+++″ (≥50 = +++)”.

“176 (RTLDKVLEV; listed as Homo sapiens) [compound 176]”: the Peptide exchange result in experiment [2] is on record as “″++″ (≥20% = ++)”.

“177 (ALLQGAIESV; listed as Homo sapiens) [compound 177]”: in experiment [2], the Peptide exchange result is “″+++″ (≥50 = +++)”.

Turning to “178 (YLFREPATI; listed as Homo sapiens) [compound 178]”, in experiment [2], the Peptide exchange result is given as “″++″ (≥20% = ++)”.

For the substance “179 (RLLSPLSSA; listed as Homo sapiens) [compound 179]”, the Peptide exchange result in experiment [2] is listed as “″+++″ (≥50 = +++)”.

With “181 (NLFDLGGQYLRV; listed as Homo sapiens) [compound 181]”, the Peptide exchange result in experiment [2] is given as “″+++″ (≥50 = +++)”.

With “182 (SLNKWIFTV; listed as Homo sapiens) [compound 182]”, in experiment [2], the Peptide exchange entry is “″++++″ (≥75% = ++++)”.

“183 (TLQEVVTGV; listed as Homo sapiens) [compound 183]”: the Peptide exchange entry in experiment [2] is “″+++″ (≥50 = +++)”.

As to “184 (SLLDENNVSSYL; listed as Homo sapiens) [compound 184]”, in experiment [2], the Peptide exchange entry was “″+++″ (≥50 = +++)”.

Consider “185 (VLYTGVVRV; listed as Homo sapiens) [compound 185]”, for which the Peptide exchange entry in experiment [2] was “″+++″ (≥50 = +++)”.

Regarding “186 (KMSEKILLL; listed as Homo sapiens) [compound 186]”, in experiment [2], the Peptide exchange result is reported as “″+++″ (≥50 = +++)”.

Turning to “187 (GLHNVVYGI; listed as Homo sapiens) [compound 187]”, in experiment [2], the Peptide exchange result is recorded as “″+++″ (≥50 = +++)”.

Turning to “188 (FLVDGPRVQL; listed as Homo sapiens) [compound 188]”, in experiment [2], the Peptide exchange result is “″+++″ (≥50 = +++)”.

Consider “189 (AISEVIGKITA; listed as Homo sapiens) [compound 189]”, for which the Peptide exchange result in experiment [2] is listed as “″+++″ (≥50 = +++)”.

“190 (AMAEMVLQV; listed as Homo sapiens) [compound 190]”: the Peptide exchange result in experiment [2] is reported as “″+++″ (≥50 = +++)”.

“191 (QLFSEIHNL; listed as Homo sapiens) [compound 191]”: the Peptide exchange result in experiment [2] is “″++++″ (≥75% = ++++)”.

For “219 (FLDEKGRCV; listed as Homo sapiens) [compound 219]”, in experiment [1], the “donors (percentage of positive donors)” value is listed as “+++ (50%-69% = +++)” and the “wells (percentage of positive wells)” value is listed as “++ (20%-49% = ++)”.

For “220 (KMDPVAYRV; listed as Homo sapiens) [compound 220]”, in experiment [1], the “donors (percentage of positive donors)” value is given as “++++ (>=70% = ++++)” and the “wells (percentage of positive wells)” value is recorded as “+++ (50%-69% = +++)”.
